From patent publication US20030059862A1 (Human Genome Sciences, published 2003)

Key:
biotinylated APRIL [1] = molecular target: T1, biotinylated APRIL (Homo sapiens (Human), UniProt O75888 105-250, biotinylated using NHS-biotin at a molar ratio of 20:1 biotin:APRIL); experiment: scFv inhibition of bio-APRIL (50 ng/ml) binding to coated TACI fusion protein, streptavidin-DELFIA; partial inhibition
T1 construct: also called bio-APRIL
T1 sequence: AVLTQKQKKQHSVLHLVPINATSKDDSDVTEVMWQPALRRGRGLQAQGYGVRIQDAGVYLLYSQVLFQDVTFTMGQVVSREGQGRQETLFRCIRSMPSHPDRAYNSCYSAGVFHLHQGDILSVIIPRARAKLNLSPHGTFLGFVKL
Procedure: (§1) APRIL binds to BCMA with higher affinity than its binds to TACI so, inhibition of biotinylated APRIL (bio-APRIL) binding to BCMA can be used to screen selection outputs as periplasmic extracts for neutralizers and then assess potency of the positives as purified scFvs. To perform this assay, each well of a black 96 well flat-bottomed plate (Costar) was coated with 1.25 ng BCMA fusion protein overnight at 4° C. The wells were blocked with 3% milk in PBS for an hour at room temperature. ScFv were then added in the presence of 5 ng/ml biotinylated APRIL for 90 minutes at room temperature. Binding of biotinylated APRIL was detected via streptavidin Delfia (Wallac) added at a 1:1000 dilution in Delfia assay buffer (Wallac). After an hour at room temperature this was read on a Wallac 1420 workstation at 620 nm.
(§2) An assay similar to that described above can also be used to test if anti-APRIL antibodies of the invention are able to inhibit binding of bio-APRIL to TACI. In this case, the plate was coated with 2.5 ng TACI fusion protein per well and scFv were added in the presence of 50 ng/ml biotinylated APRIL instead of 5 ng/ml. Otherwise, the method was identical to that for the BCMA:bio-APRIL assay.

biotinylated APRIL [2] = molecular target: T1, biotinylated APRIL; experiment: scFv inhibition of bio-APRIL (5 ng/ml) binding to coated BCMA fusion protein, streptavidin-DELFIA; partial inhibition
Procedure: as §1

biotinylated APRIL [3] = molecular target: T1, biotinylated APRIL; experiment: scFv inhibition of bio-APRIL (5 ng/ml) binding to coated BCMA fusion protein, streptavidin-DELFIA
Procedure: as §1

biotinylated APRIL [4] = molecular target: T1, biotinylated APRIL; experiment: receptor binding inhibition assay: scFv titrated with bio-APRIL (5 ng/ml); blocked binding of bio-APRIL to plate-coated BCMA fusion protein; streptavidin Delfia, fluorescence counts
Procedure: as §1

BLyS = molecular target: T2, BLyS (Homo sapiens (Human), UniProt Q9Y275 134-285); experiment: Specificity phage ELISA (scFv on phage, anti-M13-HRP, A450)
T2 construct: also called Neutrokine-alpha
T2 sequence (Q9Y275 134-285 limits assumed): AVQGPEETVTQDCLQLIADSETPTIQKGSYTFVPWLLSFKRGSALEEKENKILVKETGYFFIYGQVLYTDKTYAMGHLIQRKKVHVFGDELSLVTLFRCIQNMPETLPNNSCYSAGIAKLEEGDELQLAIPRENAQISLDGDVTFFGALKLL
Procedure: (§3) Flexible 96-well plates (Falcon) were coated overnight at 4° C. with each antigen (1 μg/ml). All antigens were coated in PBS. After coating, the solutions were removed from the wells, and the plates were blocked for 1 hour at room temperature in MPBS. The plates were washed 3 times with PBS and then 50 μl of pre-blocked phage was added to each well. The plates were incubated at room temperature for 1 hour and then washed with 3 changes of PBST followed by 3 changes of PBS.
(§4) To each well, 50 μl of an anti-M13-HRP conjugate (Pharmacia) at a 1 in 5000 dilution in MPBS was added and the plates incubated at room temperature for 1 hour. Each plate was washed three times with PBST followed by three times with PBS.
(§5) Fifty μl of TMB substrate was then added to each well, and incubated at room temperature for 30 minutes or until color development. The reaction was stopped by the addition of 25 μl of 0.5 M H₂SO₄. The signal generated was measured by reading the absorbance at 450 nm (A₄₅₀) using a microtitre plate reader (Bio-Rad 3550).

BSA = molecular target: T3, BSA (UniProt P02769 25-607); experiment: as above
T3 construct: Unrelated control antigen coated at 1 µg/ml in the phage ELISAs
T3 sequence (P02769 25-607 limits assumed): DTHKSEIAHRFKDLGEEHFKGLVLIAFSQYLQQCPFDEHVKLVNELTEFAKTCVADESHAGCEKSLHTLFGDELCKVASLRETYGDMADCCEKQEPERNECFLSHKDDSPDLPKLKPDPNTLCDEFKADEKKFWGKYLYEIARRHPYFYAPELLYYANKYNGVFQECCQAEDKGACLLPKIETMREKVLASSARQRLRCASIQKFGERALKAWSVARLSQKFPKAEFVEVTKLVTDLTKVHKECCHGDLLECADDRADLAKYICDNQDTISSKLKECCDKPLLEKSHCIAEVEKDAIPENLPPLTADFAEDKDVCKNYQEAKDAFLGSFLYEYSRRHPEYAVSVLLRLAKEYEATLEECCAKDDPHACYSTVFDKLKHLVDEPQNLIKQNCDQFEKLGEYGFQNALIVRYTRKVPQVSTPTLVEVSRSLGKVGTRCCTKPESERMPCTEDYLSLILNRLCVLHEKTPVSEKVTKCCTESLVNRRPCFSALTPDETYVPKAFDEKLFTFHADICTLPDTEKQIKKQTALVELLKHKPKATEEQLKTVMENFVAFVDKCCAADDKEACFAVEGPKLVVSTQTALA
Procedure: as §3, §4, §5

LIGHT = molecular target: T4, LIGHT (Homo sapiens (Human), UniProt O43557 83-240, limits assumed); experiment: as above
T4 chain: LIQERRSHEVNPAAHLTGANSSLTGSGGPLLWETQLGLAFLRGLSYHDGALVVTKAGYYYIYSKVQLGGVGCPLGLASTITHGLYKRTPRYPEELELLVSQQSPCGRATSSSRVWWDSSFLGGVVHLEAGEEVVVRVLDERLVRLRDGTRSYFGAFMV
Procedure: as §3, §4, §5

TNF-α = molecular target: T5, TNF-α (Homo sapiens (Human), UniProt P01375 77-233); experiment: as above
T5 construct: also called TNF-alpha
T5 sequence (P01375 77-233 limits assumed): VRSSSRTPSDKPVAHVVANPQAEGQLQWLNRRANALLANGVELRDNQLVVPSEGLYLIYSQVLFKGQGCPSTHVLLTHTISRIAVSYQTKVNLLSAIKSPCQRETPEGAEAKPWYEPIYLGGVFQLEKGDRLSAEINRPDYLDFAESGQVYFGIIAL
Procedure: as §3, §4, §5

TACI = molecular target: T6, TACI (Homo sapiens (Human), UniProt O14836 1-154, limits assumed); experiment: as above
T6 sequence: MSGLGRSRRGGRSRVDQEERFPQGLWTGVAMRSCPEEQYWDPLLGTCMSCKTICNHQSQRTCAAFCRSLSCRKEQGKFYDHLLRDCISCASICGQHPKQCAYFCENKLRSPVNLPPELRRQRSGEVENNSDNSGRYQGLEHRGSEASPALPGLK
Procedure: as §3, §4, §5

BCMA = molecular target: T7, BCMA (Homo sapiens (Human), UniProt Q02223 1-48, limits assumed); experiment: as above
T7 chain: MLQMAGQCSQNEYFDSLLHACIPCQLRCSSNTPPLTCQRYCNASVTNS
Procedure: as §3, §4, §5

biotinylated APRIL [5] = molecular target: T1, biotinylated APRIL; experiment: scFv inhibition of bio-APRIL (50 ng/ml) binding to coated TACI fusion protein, streptavidin-DELFIA
Procedure: as §1, §2

B1: A027B01 (scFv)
scFv: QVQLLQSAAEVKKPGSSVKVSCKTSGGTFRNHAISWVRQAPGQGLEWMGGIIPIFGTANYAQKFQGRVTITADESTSTAYMELSSLRSEDTAVYYCARGISAGMDVWGRGTLVTVSSGGGGSGGGGSGGGGSDIQMTQSPSFLSASIGDRVTITCRASEGIYHWLAWYQQKPGKAPKLLIYKASSLASGAPSRFSGSGSGTDFTLTISSLQPDDFATYYCQQYSNYPLTFGGGTKLEIKR
In the case of B1, the IC50 (biotinylated APRIL [1]) is reported as 94 nM and the IC50 (biotinylated APRIL [2]) is reported as 3.1 nM.

B2: A034H05 (scFv)
scFv: EVQLVQSGAEVKKPGSSVKVSCKVSGGSFPNYAINWVRQAPGQGLEWMGSLVPVFLTPNYAERFQDRVTITADESTSTAYMELRSLRSDDTAVFYCARSGGDGYRDYGMDLWGRGTLVTVSSGGGGSGGGGSGGGGSAQSVLTQPPSASGTPGQRVTISCSGSSSNIGRNTVNWFQQLPGTAPKLLIYSSNQRPSGVPDRFAGSKSGTSASLAISGLQSEDEADYYCAAWDDSLNGLVFGGGTKLTVLG
With B2 the IC50 (biotinylated APRIL [3]) was 10 nM and the IC50 (biotinylated APRIL [1]) was 13 nM.

B3: A053H04 (scFv)
scFv: EVQLVQSGAEVKKPGSSVKVSCKASGGTFSNYAISWVRQAPGQGLEWMGGIIPLFDTPNYAQKFQGRVTITADESTSTAYMELSSLRSEDTAVYYCARGNTGPRPFDPWGKGTTVTVSSGGGGSGGGGSGGGGSAQAVLTQPSSVSGAPGQRVTVSCTGSSSNIGAGYEVNWYQQLPGTAPKLLIYGDTNRPSGVPDRFSGSKSGTSASLAITGLQAEDEANYYCQSYDSGPGGPVVFGGGTKLTVLG
B3 gave an IC50 (biotinylated APRIL [3]) of 25 nM and an IC50 (biotinylated APRIL [1]) of 139 nM.

B4: A010D09 (scFv)
scFv: QVQLVQSGAEVKKLGSSVKVSCKASGGTFSSYAISWVRQAPGQGLEWMGGIIPIFGTANYAQKFQGRVTITADESTSTAYMELSSLRSEDTAVYYCARDLSRLGMDVWGQGTTVTVSSGGGGSGGGGSGGGGSDIQMTQSPSTLSASIGDRVTITCRASEGIYHWLAWYQQKPGKAPKLLIYKASSLASGAPSRFSGSGSGTDFTLTISSLQPDDFATYYCQQYSNYPLTFGGGTKLEIKR
B4 showed an IC50 (biotinylated APRIL [4]) of 3 nM, an IC50 (biotinylated APRIL [1]) of 12 nM and an IC50 (biotinylated APRIL [2]) of 2.3 nM.

B5: A027A11 (scFv)
scFv: QVQLQQSGAEVKKPGSSVKVSCKASGGTFSTYAITWVRQAPGQGLEWMGDIIPVFGIPNYAQMFQDRVTITADESTSTAYLELNSLGAEDTAVYYCARGSQAFEIWGKGTTVTVSSGGGGSGGGGSGGGGSQSVLTQPASVSGSPGQSITISCTGTSSDVGGYNYVSWYQQHPGKAPKLMIYEGSKRPSGVSNRFSGSKSGNTASLTISGLQAEDEADYYCSSYTTRSTRVFGGGTKLTVLG
For B5, the IC50 (biotinylated APRIL [3]) was 2.7 nM and the IC50 (biotinylated APRIL [1]) was 5.6 nM.

B6: A034G03 (scFv)
scFv: QVQLQQSGAEVKKPGSSVKVSCKASGGTFSNYAISWVRQAPGQGLEWMGGIIPLFDTPNYAQKFQGRVTITADESTSTAYMELSSLRSEDTAVYYCARGNTGPRPFDPWGQGTLVTVSSGGGGSGGGGSGGGGSAQAVLTQPSSVSGAPGQRVTISCSATSPNIGAGDEIHWYQVSPGKAPKLLIYGDIKRPSGVSDRFSGSKSGTTASLAITGLRPEDEADYYCQSYDRTLSGSVVFGGGTKVTVLG
B6 gave an IC50 (biotinylated APRIL [3]) of 6 nM and an IC50 (biotinylated APRIL [1]) of 36 nM.

B7: A030D09 (scFv)
scFv: QVQLQQSGAEVKKPGSSVKVSCKTSGGAFSHYAIHWVRLAPGQGLEWMGDIIPVYGSTTYAQKFQDRVTISADESTSTAYMELSSLRSEDTAVYYCARSWYYDILTGYWDYYYMDVWGKGTLVTVSSGGGGSGGGGSGGGGSSELTQDPAVSVALGQTVRITCQGDSLRSYYASWYQQKPGQAPVLVIYGKNNRPSGIPDRFSGSSSGNTASLTITGAQAEDEADYYCNSRDSSGNHVVFGGGTKLTVLG
For B7, the IC50 (biotinylated APRIL [3]) was 55 nM and the IC50 (biotinylated APRIL [1]) was 150 nM.

B8: A004G02 (scFv)
scFv: QVQLVQSGAEVKKPGSSVKVSCKASGGTFSSYGIRWVRQAPGQGLEWMGGIIPIFGTANYAQKFQGRVTITADEYTSTAYMELSSLRSEDTAVYYCARSNPQYDAFDIWGQGTTVTVSSGGGGSGGGGSGGGGSSYVLTQPPSVSGTPGQRVTVSCSGGRSNIGSNTVKWYQQLPGTAPKLLIYGNDQRPSGVPDRFSGSKSGNTASLTVSGLQVEDEADYYCQSYDSSLRGSVFGGGTKLTVLG
B8 was tested, and the IC50 (biotinylated APRIL [3]) was 19 nM, the binding result (BLyS) was “no binding (tested: antigen coated at 1 µg/ml)” and the binding result (BSA) was “no binding (tested: antigen coated at 1 µg/ml)”. B8: no binding (tested: antigen coated at 1 µg/ml) (LIGHT); no binding (tested: antigen coated at 1 µg/ml) (TNF-α); no binding (tested: antigen coated at 1 µg/ml) (TACI). For the same binder, the binding result (BCMA) was “no binding (tested: antigen coated at 1 µg/ml)” and the IC50 (biotinylated APRIL [5]) was 800 nM.

B9: A013B07 (scFv)
scFv: EVQLVQSGAEVKKPGASVKVSCKTSGYTFTDNYMHWVRQAPGQGLEWMGWISPNSSTTLYAQKFRGRVTLTRDTSVSTAYMELSGLDSDDTALYFCARGGRLAGSTVFTPAFEYWGQGTMVTVSSGGGGSGGGGSGGGGSAQSVLTQPPSVSEAPRQRVTISCSGSSSNIGANAVNWYQQLPGKAPKLLIYFDDLLPSGVSDRFSGSKSGTSASLAISGLQSEDEADYYCAAWDDSLNGVVFGGGTKLTVLG
B9 was tested, and the IC50 (biotinylated APRIL [3]) was 7.7 nM and the IC50 (biotinylated APRIL [5]) was 10 nM.

B10: A020F03 (scFv)
scFv: EVQLVQSGAEVKKPGASVKVSCKTSGYTFTDNYMHWVRQAPGQGLEWMGWISPNSSTTLYAQKFRGRVTLTRDTSVSTAYMELSGLDSDDTALYFCARGGRLAGSTVFTPAFEYWGRGTMVTVSSGGGGSGGGGSGGGGSAQAVLTQPSSVSEAPRQRVTISCSGSSSNIGNNAVKWYQQLPGKAPKLLIYYDDLLPSGVSDRFSGSKSGTSASLAISGLQSEDEADYYCAAWDDSLNGYVFGTGTKVTVLG
In the case of B10, the IC50 (biotinylated APRIL [3]) is reported as 12 nM and the IC50 (biotinylated APRIL [5]) is reported as 3.5 nM.
